From PMC13269782
Values belong to the substance of their own block, whether it stands above or below them.

Columns and labels:
[1] = biological target: Cx36 E230K-E239K (human) (UniProt Q9UKL4)
[2] = biological target: Cx36 K238E-E230K (human) (UniProt Q9UKL4)
[3] = biological target: Cx45, human (human) (UniProt P36383)
[4] = biological target: Cx36 E239K (human) (UniProt Q9UKL4)
[5] = biological target: Cx36 K238E (human) (UniProt Q9UKL4)
[6] = biological target: Cx36 K238E-E230K-E239K (human) (UniProt Q9UKL4)
[7] = biological target: Cx36 E241A (human) (UniProt Q9UKL4)
[8] = biological target: Cx36 E230K (human) (UniProt Q9UKL4)
[9] = biological target: Cx31.3, human (human) (UniProt Q8NFK1)
Sequence of Cx31.3, human (human) (Q8NFK1 whole entry): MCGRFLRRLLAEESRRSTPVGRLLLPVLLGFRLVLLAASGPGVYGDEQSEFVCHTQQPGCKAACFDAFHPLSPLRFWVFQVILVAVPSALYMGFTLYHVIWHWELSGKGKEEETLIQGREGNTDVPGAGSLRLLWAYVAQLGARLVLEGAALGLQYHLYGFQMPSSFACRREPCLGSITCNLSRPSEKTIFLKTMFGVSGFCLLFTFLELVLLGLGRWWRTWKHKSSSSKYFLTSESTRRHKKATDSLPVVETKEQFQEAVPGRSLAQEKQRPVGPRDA

[10] = biological target: Cx36 K238Q (human) (UniProt Q9UKL4)
[11] = biological target: Cx36 E241K (human) (UniProt Q9UKL4)
[12] = biological target: Cx36 E230K-E239K-E241K (human) (UniProt Q9UKL4)
[13] = biological target: Cx36 K238A (human) (UniProt Q9UKL4)
[14] = biological target: Cx43, human (human) (UniProt P17302)
Sequence of Cx43, human (human) (P17302 whole entry): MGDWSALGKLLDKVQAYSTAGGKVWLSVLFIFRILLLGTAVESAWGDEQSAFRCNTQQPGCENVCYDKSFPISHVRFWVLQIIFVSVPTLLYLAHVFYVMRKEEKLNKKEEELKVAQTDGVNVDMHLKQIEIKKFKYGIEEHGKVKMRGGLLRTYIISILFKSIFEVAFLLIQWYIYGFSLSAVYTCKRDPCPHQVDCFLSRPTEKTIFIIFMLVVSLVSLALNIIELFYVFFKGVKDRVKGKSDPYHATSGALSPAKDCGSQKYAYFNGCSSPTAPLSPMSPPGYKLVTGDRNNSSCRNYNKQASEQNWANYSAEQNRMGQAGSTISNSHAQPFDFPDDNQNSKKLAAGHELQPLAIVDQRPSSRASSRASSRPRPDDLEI

[15] = biological target: Cx36 K238E-E239K (human) (UniProt Q9UKL4)
[16] = biological target: Connexin36 (Cx36), human, wildtype (human) (UniProt Q9UKL4)
[17] = biological target: Cx30, human (human) (UniProt O95452)
Sequence of Cx30, human (human) (O95452 whole entry): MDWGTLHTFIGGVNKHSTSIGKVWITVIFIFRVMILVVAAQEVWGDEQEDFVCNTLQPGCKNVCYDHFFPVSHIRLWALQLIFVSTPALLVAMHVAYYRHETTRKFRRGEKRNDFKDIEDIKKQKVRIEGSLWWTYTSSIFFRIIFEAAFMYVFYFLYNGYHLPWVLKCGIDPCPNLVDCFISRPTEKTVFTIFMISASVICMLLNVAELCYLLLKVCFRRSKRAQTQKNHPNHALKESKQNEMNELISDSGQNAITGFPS

[18] = biological target: Cx32 (human) (UniProt P08034)
Sequence of Cx32 (human) (P08034 whole entry): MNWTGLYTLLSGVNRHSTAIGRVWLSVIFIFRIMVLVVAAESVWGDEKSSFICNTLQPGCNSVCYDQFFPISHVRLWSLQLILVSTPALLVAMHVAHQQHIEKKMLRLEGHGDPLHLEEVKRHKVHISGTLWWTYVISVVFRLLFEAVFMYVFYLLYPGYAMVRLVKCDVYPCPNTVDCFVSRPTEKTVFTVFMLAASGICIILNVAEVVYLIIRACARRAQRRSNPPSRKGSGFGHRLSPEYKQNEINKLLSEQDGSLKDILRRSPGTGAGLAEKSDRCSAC

[19] = biological target: Cx26, human (human) (UniProt P29033)
[20] = biological target: T1, Cx47, human (human) (UniProt Q5T442)
T1 sequence: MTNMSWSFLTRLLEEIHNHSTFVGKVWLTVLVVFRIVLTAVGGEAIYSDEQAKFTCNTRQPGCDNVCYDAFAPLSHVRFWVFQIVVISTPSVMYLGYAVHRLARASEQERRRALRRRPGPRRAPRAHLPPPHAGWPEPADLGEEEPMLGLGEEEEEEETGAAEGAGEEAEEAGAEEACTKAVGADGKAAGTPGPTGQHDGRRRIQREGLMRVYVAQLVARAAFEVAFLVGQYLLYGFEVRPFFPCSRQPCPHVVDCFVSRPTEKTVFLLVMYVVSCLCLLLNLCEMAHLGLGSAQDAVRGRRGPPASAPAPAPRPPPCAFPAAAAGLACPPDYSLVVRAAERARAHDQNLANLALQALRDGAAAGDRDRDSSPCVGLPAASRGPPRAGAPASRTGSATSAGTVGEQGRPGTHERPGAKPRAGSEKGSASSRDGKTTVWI

[21] = biological target: Cx36 K238E-E230K-E239K-E241K (human) (UniProt Q9UKL4)

Sequence of Connexin36 (Cx36), human, wildtype (Q9UKL4 whole entry): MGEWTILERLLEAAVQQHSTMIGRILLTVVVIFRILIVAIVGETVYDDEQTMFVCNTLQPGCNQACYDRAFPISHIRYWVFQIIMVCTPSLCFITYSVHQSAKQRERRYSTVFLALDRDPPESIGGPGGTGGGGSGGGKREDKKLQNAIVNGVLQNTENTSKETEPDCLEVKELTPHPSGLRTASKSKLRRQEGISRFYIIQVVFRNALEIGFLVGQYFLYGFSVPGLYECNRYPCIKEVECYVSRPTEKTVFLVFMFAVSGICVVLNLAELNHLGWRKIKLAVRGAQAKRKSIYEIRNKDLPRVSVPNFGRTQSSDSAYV
Sequence of Cx45, human (P36383 whole entry): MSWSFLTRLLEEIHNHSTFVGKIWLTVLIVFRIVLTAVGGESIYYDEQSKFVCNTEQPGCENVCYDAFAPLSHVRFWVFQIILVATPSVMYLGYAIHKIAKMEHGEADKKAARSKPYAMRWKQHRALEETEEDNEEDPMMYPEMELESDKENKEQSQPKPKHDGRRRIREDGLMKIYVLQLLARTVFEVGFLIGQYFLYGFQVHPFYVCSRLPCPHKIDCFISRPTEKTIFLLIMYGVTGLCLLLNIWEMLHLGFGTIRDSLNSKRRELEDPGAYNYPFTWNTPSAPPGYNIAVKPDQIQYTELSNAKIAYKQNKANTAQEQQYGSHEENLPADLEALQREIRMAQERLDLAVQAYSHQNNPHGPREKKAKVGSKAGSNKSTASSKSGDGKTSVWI
Sequence of Cx45, human (human) (P36383 whole entry): as above
Sequence of Cx32 (P08034 whole entry): as the sequence (P08034 whole entry) above
Sequence of Cx43, human (P17302 whole entry): as the sequence (P17302 whole entry) above
Sequence of Cx31.3, human (Q8NFK1 whole entry): as the sequence (Q8NFK1 whole entry) above
Sequence of Cx30, human (O95452 whole entry): as the sequence (O95452 whole entry) above

Substance: Cx36 E230K-E239K (from UniProt Q9UKL4 1-321) (natural protein)
median junctional conductance (Gj), dual whole-cell patch clamp of DKO HEK293 cell pairs, homotypic; IQR 0–0; 20 pairs [1]: 0 nS | median junctional conductance (Gj), dual whole-cell patch clamp of DKO HEK293 cell pairs, heterotypic; IQR 0–0.18; 15 pairs [2]: 0.09 nS

Substance: Cx36 K238E-E230K-E239K (from UniProt Q9UKL4 1-321) (natural protein)
median junctional conductance (Gj), dual whole-cell patch clamp of DKO HEK293 cell pairs, homotypic; IQR 0.08–0.14; 16 pairs [6]: 0.12 nS

Substance: Cx36 E241A (from UniProt Q9UKL4 1-321) (natural protein)
median junctional conductance (Gj), dual whole-cell patch clamp of DKO HEK293 cell pairs, heterotypic; IQR 0–0; 16 pairs [1]: 0 nS | median junctional conductance (Gj), dual whole-cell patch clamp of DKO HEK293 cell pairs, homotypic; IQR 0.03–0.19; 18 pairs [7]: 0.09 nS

Substance: Cx36 K238E-E230K (from UniProt Q9UKL4 1-321) (natural protein)
median junctional conductance (Gj), dual whole-cell patch clamp of DKO HEK293 cell pairs, homotypic; IQR 0–0; 15 pairs [2]: 0 nS

Substance: Cx36 E230K (from UniProt Q9UKL4 1-321) (natural protein)
median junctional conductance (Gj), dual whole-cell patch clamp of DKO HEK293 cell pairs, heterotypic; IQR 0–0; 20 pairs [1]: 0 nS | median junctional conductance (Gj), dual whole-cell patch clamp of DKO HEK293 cell pairs, heterotypic; IQR 0.05–0.22; 20 pairs [5]: 0.1 nS | median junctional conductance (Gj), dual whole-cell patch clamp of DKO HEK293 cell pairs, homotypic; IQR 0–0.14; 28 pairs [8]: 0.01 nS

Substance: Cx31.3, human (from UniProt Q8NFK1 1-279) (natural protein)
median junctional conductance (Gj), dual whole-cell patch clamp of DKO HEK293 cell pairs, homotypic; IQR 0–0; 17 pairs [9]: 0 nS

Substance: Cx36 K238Q (from UniProt Q9UKL4 1-321) (natural protein)
median junctional conductance (Gj), dual whole-cell patch clamp of DKO HEK293 cell pairs, homotypic; IQR 0–0; 16 pairs [10]: 0 nS

Substance: Cx36 E241K (from UniProt Q9UKL4 1-321) (natural protein)
median junctional conductance (Gj), dual whole-cell patch clamp of DKO HEK293 cell pairs, homotypic; IQR 0–0; 25 pairs [11]: 0 nS

Substance: Cx36 K238A (from UniProt Q9UKL4 1-321) (natural protein)
median junctional conductance (Gj), dual whole-cell patch clamp of DKO HEK293 cell pairs, homotypic; IQR 0–0; 23 pairs [13]: 0 nS

Substance: Cx43, human (from UniProt P17302 1-382) (natural protein)
median junctional conductance (Gj), dual whole-cell patch clamp of DKO HEK293 cell pairs, homotypic; IQR 0–9.93; 17 pairs [14]: 0.46 nS

Substance: Cx36 K238E-E239K (from UniProt Q9UKL4 1-321) (natural protein)
median junctional conductance (Gj), dual whole-cell patch clamp of DKO HEK293 cell pairs, homotypic; IQR 0–0; 15 pairs [15]: 0 nS

Substance: Cx36 K238E-E230K-E239K-E241K (from UniProt Q9UKL4 1-321) (natural protein)
median junctional conductance (Gj), dual whole-cell patch clamp of DKO HEK293 cell pairs, homotypic; IQR 0–0; 16 pairs [21]: 0 nS

Substance: Cx36 K238E (from UniProt Q9UKL4 1-321) (natural protein)
median junctional conductance (Gj), dual whole-cell patch clamp of DKO HEK293 cell pairs, heterotypic; IQR 0–0; 18 pairs [12]: 0 nS | median junctional conductance (Gj), dual whole-cell patch clamp of DKO HEK293 cell pairs, heterotypic; IQR 0–0; 15 pairs [2]: 0 nS | median junctional conductance (Gj), dual whole-cell patch clamp of DKO HEK293 cell pairs, heterotypic; IQR 0–0; 15 pairs [15]: 0 nS | median junctional conductance (Gj), dual whole-cell patch clamp of DKO HEK293 cell pairs, heterotypic; IQR 0–0; 19 pairs [11]: 0 nS | median junctional conductance (Gj), dual whole-cell patch clamp of DKO HEK293 cell pairs, homotypic; IQR 0–0; 19 pairs [5]: 0 nS

Next, values leading:

median junctional conductance (Gj), dual whole-cell patch clamp of DKO HEK293 cell pairs, homotypic; IQR 0.5–19.6; 29 pairs [3]: 6.8 nS
Substance: Cx45, human (from UniProt P36383 1-396) (natural protein)

median junctional conductance (Gj), dual whole-cell patch clamp of DKO HEK293 cell pairs, heterotypic; IQR 0–0.12; 21 pairs [1]: 0.05 nS | median junctional conductance (Gj), dual whole-cell patch clamp of DKO HEK293 cell pairs, homotypic; IQR 0.04–0.31; 30 pairs [4]: 0.12 nS | median junctional conductance (Gj), dual whole-cell patch clamp of DKO HEK293 cell pairs, heterotypic; IQR 0.08–0.2; 23 pairs [5]: 0.11 nS
Substance: Cx36 E239K (from UniProt Q9UKL4 1-321) (natural protein)

median junctional conductance (Gj), dual whole-cell patch clamp of DKO HEK293 cell pairs, homotypic; IQR 0–0; 12 pairs [12]: 0 nS
Substance: Cx36 E230K-E239K-E241K (from UniProt Q9UKL4 1-321) (natural protein)

median junctional conductance (Gj), dual whole-cell patch clamp of DKO HEK293 cell pairs, heterotypic; IQR 0.11–0.41; 19 pairs [1]: 0.22 nS | median junctional conductance (Gj), dual whole-cell patch clamp of DKO HEK293 cell pairs, heterotypic; IQR 0–0; 16 pairs [2]: 0 nS | median junctional conductance (Gj), dual whole-cell patch clamp of DKO HEK293 cell pairs, heterotypic; IQR 0.05–0.24; 17 pairs [13]: 0.16 nS | median junctional conductance (Gj), dual whole-cell patch clamp of DKO HEK293 cell pairs, heterotypic; IQR 0.08–0.19; 18 pairs [4]: 0.13 nS | median junctional conductance (Gj), dual whole-cell patch clamp of DKO HEK293 cell pairs, heterotypic; IQR 0.01–0.31; 16 pairs [10]: 0.13 nS | median junctional conductance (Gj), dual whole-cell patch clamp of DKO HEK293 cell pairs, heterotypic; IQR 0–0.10; 15 pairs [15]: 0.06 nS | median junctional conductance (Gj), dual whole-cell patch clamp of DKO HEK293 cell pairs, homotypic; IQR 0.02–0.19; 38 pairs [16]: 0.1 nS | median junctional conductance (Gj), dual whole-cell patch clamp of DKO HEK293 cell pairs, heterotypic; IQR 0.04–0.22; 15 pairs [8]: 0.14 nS | median junctional conductance (Gj), dual whole-cell patch clamp of DKO HEK293 cell pairs, heterotypic; IQR 0–0; 15 pairs [9]: 0 nS | median junctional conductance (Gj), dual whole-cell patch clamp of DKO HEK293 cell pairs, heterotypic; IQR 0–0; 25 pairs [14]: 0 nS | median junctional conductance (Gj), dual whole-cell patch clamp of DKO HEK293 cell pairs, heterotypic; IQR 0–0; 15 pairs [17]: 0 nS | median junctional conductance (Gj), dual whole-cell patch clamp of DKO HEK293 cell pairs, heterotypic; IQR 0–0; 19 pairs [18]: 0 nS | median junctional conductance (Gj), dual whole-cell patch clamp of DKO HEK293 cell pairs, heterotypic; IQR 0–0; 19 pairs [19]: 0 nS | median junctional conductance (Gj), dual whole-cell patch clamp of DKO HEK293 cell pairs, heterotypic; IQR 0–0; 26 pairs [3]: 0 nS | median junctional conductance (Gj), dual whole-cell patch clamp of DKO HEK293 cell pairs, heterotypic; IQR 0–0; 21 pairs [20]: 0 nS
Substance: Connexin36 (Cx36), human, wildtype (from UniProt Q9UKL4 1-321) (natural protein)

median junctional conductance (Gj), dual whole-cell patch clamp of DKO HEK293 cell pairs, homotypic; IQR 0–16.23; 17 pairs [18]: 0.85 nS
Substance: Cx32 (from UniProt P08034 1-283) (natural protein)

median junctional conductance (Gj), dual whole-cell patch clamp of DKO HEK293 cell pairs, homotypic; IQR 0.43–21.28; 16 pairs [17]: 6.55 nS
Substance: Cx30, human (from UniProt O95452 1-261) (natural protein)
